Data published in article PMC9849454, “Kaposi’s sarcoma-associated herpesvirus induces specialised ribosomes to efficiently translate viral lytic mRNAs” (Nature Communications, 2023).

B1: BUD23 (natural protein, human (endogenous in TREx BCBL1-Rta), UniProt O43709 1-281, looked up)
chain: MASRGRRPEHGGPPELFYDETEARKYVRNSRMIDIQTRMAGRALELLYLPENKPCYLLDIGCGTGLSGSYLSDEGHYWVGLDISPAMLDEAVDREIEGDLLLGDMGQGIPFKPGTFDGCISISAVQWLCNANKKSENPAKRLYCFFASLFSVLVRGSRAVLQLYPENSEQLELITTQATKAGFSGGMVVDYPNSAKAKKFYLCLFSGPSTFIPEGLSENQDEVEPRESVFTNERFPLRMSRRGMVRKSRAWVLEKKERHRRQGREVRPDTQYTGRKRKPRF
B2: NOC4L (natural protein, human (endogenous in TREx BCBL1-Rta), UniProt Q9BVI4 1-516, looked up)
chain: MEREPGAAGVRRALGRRLEAVLASRSEANAVFDILAVLQSEDQEEIQEAVRTCSRLFGALLERGELFVGQLPSEEMVMTGSQGATRKYKVWMRHRYHSCCNRLGELLGHPSFQVKELALSALLKFVQLEGAHPLEKSKWEGNYLFPRELFKLVVGGLLSPEEDQSLLLSQFREYLDYDDTRYHTMQAAVDAVARVTGQHPEVPPAFWNNAFTLLSAVSLPRREPTVSSFYVKRAELWDTWKVAHLKEHRRVFQAMWLSFLKHKLPLSLYKKVLLIVHDAILPQLAQPTLMIDFLTRACDLGGALSLLALNGLFILIHKHNLEYPDFYRKLYGLLDPSVFHVKYRARFFHLADLFLSSSHLPAYLVAAFAKRLARLALTAPPEALLMVLPFICNLLRRHPACRVLVHRPHGPELDADPYDPGEEDPAQSRALESSLWELQALQRHYHPEVSKAASVINQALSMPEVSIAPLLELTAYEIFERDLKKKGPEPVPLEFIPAQGLLGRPGELCAQHFTLS

Target: T1, FLAG-2xStrep-PNO1 (UniProt Q9NRX1 1-252)
T1 construct: also called PNO1 bait protein
T1 sequence (Q9NRX1 whole entry): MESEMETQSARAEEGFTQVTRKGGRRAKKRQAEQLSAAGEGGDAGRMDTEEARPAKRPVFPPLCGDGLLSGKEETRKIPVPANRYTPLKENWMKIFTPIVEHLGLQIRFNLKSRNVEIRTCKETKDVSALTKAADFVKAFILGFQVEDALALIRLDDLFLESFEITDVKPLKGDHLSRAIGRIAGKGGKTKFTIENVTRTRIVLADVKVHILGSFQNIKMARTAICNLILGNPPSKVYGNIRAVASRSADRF
Test: pull-down
Settings: partners not purified

Row | Binder | fold increase of association during lytic replication over latency (densitometry of pulldown blots, normalised to PNO1) [fold]
1 | B1 | 4.3
2 | B2 | 3.1
